According to a protein production outcome set (Wang et al. 2014):

Test: label from the status in PepcDB records

MGALAAAMFDLRSRRENPGPESDPRKGRDRQRPSDARETKEDLKSQPDLRQVKEKVRNDEIAIQSESLVEYKERNQRRDDVLQVPELYDVLLPKLRVRIVFGSSFKPRKSTGRQWSMTQSWLKIKMNTNENEV
protein production: failed

MGAMHVLTLDLAPVTPKDAPLLHRVFHLSPSYFALIGMELPTLEDVVRDLQTLEVDPRRRAFLLFLGQEPVGYLDAKLGYPEAEDATLSLLLIREDHQGRGLGRQALERFAAGLDGVRRLYAVVYGHNPKAKAFFQAQGFRYVKDGGPTLTWYVRPL
protein production: not failed

MGANEDQEMELEALRSIYEGDNSFRELSPVSFQYRIGEDGDPKAFLIEVSWTETYPQTAPVISMNAFFNNTISSAVKQSILAKLQEAVEVNLGTAMTYTLFEYAKDHKEQFMENHHPGNSATPVANIISVETPTTAPSSKKKEKKEQLSKAQKRKLADKTDHKGELPRGWNWVDVVKHLSKTGSKDDE
protein production: failed

MGAQKKPAAAKVREDSEDLSRQRLQAILLADSFTTQFRSITLERPKVLLPIVNIPMIDYTLAWLESAGIEEVFVFCCAHSSQIIDYLKKSEWYTRPNPNLLVRTIVSHNSTSVGDALRYIYEQQTETSQIQGDFVLVSGDTVSNMPLADLIQQHRDRKKKDEKAIMTMVFKKQSRLGIGSDQLFVAVDPLTKQLLHYEECNSRGGDFCLDKSLLDSTVLCSDMQDCYIDICSPEVLSLFEDNFDYQHMRRHFVNGLLVDDIMGYKIFTHEIQSSCYAARIDNLRSYDTVSKDIIQRWTYPYVPNIDFSGNRPVKLGRRGIYRASDAVQSHTADVGASTVIGYGTKIGNGGKIYNSVIGNGCCIGSNVVIQGSYIWNNVTIEDGCEIRNAIVCDGVKVRAGAVLQPGVVLSFSVVVGRDFVVPAYSKVSLLQQPTTEDSDEELEYADSSSGTADHSSGLNNLQIESKASELGPDGAGYIWEICDSAHDEEWKHSVVPIPMDKLADITGAMDDDDIEDDIVVPPSGELKSDTDIINTDANDSYGDFEREVEEEFLSAVEKDNKADIVIPLINSHRLAYNMDSADCAGAVFYSMMRLAVKSPHNSATELYRNAMGVITKWKGVLGFYLKQTDAQIEVIMKFEEMCQESEELSPLFAKLLPFLYDKDVVQEDAILRWGEEKAGADDCDKVYLNKCESFIKWLKEASEEEEEDS
protein production: failed

MGARTPPCGREIVRVLPSERLISGNGEGAPLPDSHSELPPVIRRTEFVAYALAGLLLIAVIGVLYFAKAFFLPVVMAVVAGTMLSPAASFLERRGVPRALGAVLIVTAVTTVVAFVVALIAVPAMEWSSRLPELGAQLKEKLHVFDRPLALWKELQTMVGGSEGLPSLPLPKAEWVQPTLEFLSPTFAEFLLFFATLILFIASWRDLRRALIMNFGDRDARLRTLRILNEIEVHLGNYLLTVTVINIGVGVATGIICAITGMPNPAGLGALAAALNFIPIIGPIAMFIVLIVVGLVAFPTLGGGLMAGLAFGGITFLEGHFVTPTIIGRRLSLNALAVFIALAFWTWLWGPMGAFLSSPLLIVGLILKEHLLPENSPQLPQA
protein production: failed

MGASTFWIITIVFCIAIYFLDKFLRKKLNMPKGGFWGYKKHVNSLHKKLEIGLLFIYLITSFIFIFKFESINIAYVIFTYLGGTLILRALMEWKYDRESKEYIFSVIGVFTFIFMTSILFYFFPPAV
protein production: failed

MGCVFTNFRLRRSQTPKAKTPMIFEKQDYQQECIYNIITLLDGFDFKRHDALNLKDCLNQFHAACEIPVKNVSGKLNVDVLMETGTGKTFTYLNLIFALHKAYGQNKFIIFVPRKAILESVKQNIRLTKDYFYLEFKRHLKTYTYEGVKSPSNIINHYIKNQDELSVLLLTNSAIDKEGNILNKNSENLFNTKSIFENIADLKPISIIDEPHLLKGEAFGKYFGKIGALYFRFGATFAKEKEHALSNVAFCLDSISAFRNYLVKQIRIHSVMQDAQSPFLLNADSKSAKIAFYKAGILKQITLSKGEDLGKINASFNGVSLVKTAKDKAYLSNGATLEKASYKLAQDEISALLEKAIDLHFEKEAFLFDQNIKALSLFFIPKIEDFRQIDNKGTPFIKTEFERLYKLKRASILARENLSPSYKEYLKRDFDESGNLRVHQGYFSGDSVALNKGKKESKKEDIEANDIKMILSEKEKLLSFQTPLRFIFSVWALQEGWDNPNIFTLIKLANSTSETSRHQQVGRGLRIAINQEGKRVTHGFLKGNDNAFYKINYLDMLVSGEEVGFIEGLQKEIEASSFIGGGNALDREDLAKLGLNEREINKLFVELENSNALEFDETNNAYKIIAPICETMQNNEERIKDFLSDEEYHAVLSAFKMAENPTNKRDQIINANQPQEKVKIRQNLAKEFKELWQTINAQSQLSYQNIQKTKLIESIAKAFNESHVSAEVIKFESKRYDPQTNRIITEQSSTLKIRDYANALQKEINALLLDFAKDERLPLKFTLELYNALNKEHFTNSPKKAFKLLKGIIKDKLHENLLSCVSYGFCQNAFSNTAFDKTDPLYCEDGSPKNEIEKHKIGKYKSAQTPSPNYLYETIIYDSKIEEEVSEEGVQTLEGKSIEVFAKLPKFKIPTPYKNYEPDFAYLLKDEKGAKIFFVCETKGYEKESDIPPDEKRKIEYAKKFFETLSQNLKNAKKEIRVVFATRINKQDLFNTLKNALKETP
protein production: failed

MGDEHSLIPKQIGVVPSAGFLNVEVFERPCPEPNIQPWDIPYVHYPKPKTYSSSNGEIFSVKDRRANVSTIFETLDKVYNLDWLSSASKNECTSAVGLKWMLNQAEILARYKPLINTSLLIPDLKQVQEMTSKALAYFNTTRHIFLYYEDVVKNRTKLDDVQEFLKVPKLDLKSRQVKIHHGPLSQHVQNWEEVQKTLKGTGFENFLLEDYRR
protein production: failed

MGDFIGSVWWMIVSLGVLVTFHEFGHFWVARRCGVKVLRFSVGFGKPLWMRRDRHGTEFVVAAIPLGGYVKMLDEREGDVHPAEQDQAFNRKTVWQRIAIVAAGPIANLLLCMAMLWAMFVVGKQDYSATVGRADGLAAEAGLTPGERIVRIDGRSVSSWSDASMQLTTAAMDRRDVRVLTASDTASSSEHTLRLSQLPVGFDERRVAALAGIGWQFMLQPPVIAEVVKGSVADGLLKPGDRIVAIDGQPIRSAEDIIPQVQALGAHGGPGMIEVARGEDRLALEIAPRKSPQGQWMIGVRPAAAPAPEYDSRQQYGLFAAVPAAIRETGRMTADSLGMMKRMLTGQASVKNISGPVTIARAANASAERGLDWFLYFLGLLSLSLAIINLMPIPILDGGHLLYYLIELIKGSPISERAMIAGQYVGLAALAGLMGLAFYNDILGLVPR
protein production: failed

MGDSKGRVASAAVSLAEFLESCAGKWFSQRTSYRLGATQDWHQSDQTTLFVDFLAADAPELQALIAEQGLAIAALQSRWEATPQQPASTSLLVFLAEGDRLVHQRGDRCWQGRYQFEGDHRGLTLTTEQPDGQVEERFWFAHPNLRLRTSLIRDRTGLSRSSFYSEIRLGVKPPEPPAEV
protein production: failed

MGEEATAVAAAGVRPELVREAEVSLLECKVCFERFGHWQQRRPRNLPCGHVVCLACVAALAHPRTLGLECPFCRRACRACDTSDCLPVLHLLELLGSTLHASPAALSAAPFAPGTLTCYHAFGGWGTLVNPTGLALCPKTGRVVVVHDGKRRVKIFDSGGGGAHQFGEKGDAAHDVKYPLDVAVTNDCHVVVTDAGDCSLKVFDFFGQIKLVVGKQFSLPWGVEITPHNGVLVTDAEAGTLHLLEADFPEGVLRRIERLQAHLCSPRGLAVSWLTGAIAVLEHPCAFGRTGCNNTRVKVFNSTMQLIGQVDSFGLNLLFPSKVTASAVTFDHQGNVIVADTSGPAIVCLGKPEEFPALKPIITHGLSRPVALAFTKENSLLVLDTASHSIKVFKVMEGNGG
protein production: failed

MGEPNLQLSLLYVIAIFTSAILLSARMSLLITLLAVIAVIYQRFVGSLFDYNNLNTIGNSALLAFLFFVVHRIGQIAVQRFKLLEALTFHQSIELYQLQNINRYILEQIEEGYLVLDENYDIVVSNPAACSLLGIPPQFANEKYPLAKWHADLFEILKFGDLKEGDRFIFESRLSAYSINIKVQHLLVPQQTLTLLILQDAQQINQQAQQLKLAALGQLSASIAHEIRNPLAAIVQANELLKDSDPEQQNTLRHMIGKQTKRIDSIVQDTLGLARSERTHPIQIDVKHFIDTLLEEDLFDVKHSIQLKISDSSLKFLFDEKQLRQVMINLVRNALRHNATDSPYITINIHSQTNKIYIDVIDYGEGVSKRDISQLFKPFFSTEINGTGLGLYLSHSFCEANHAKLTYVEQKQGACFRIECPIIY
protein production: failed

MGESVRTLSYGSWPSPVDAALAAAHDGRPDDVGFVGDEVWWTAPRPTEGGRRTLVRRHADGTEEPVLPAPWNVRSRVIEYGGRPWGAATTDSGPLVVFVNFADQRLYAFTPGGGEPRPLTPLSAVGGGLRWIEPDPRPERGEVWCVLEEFTGEGPTDVRRVPVAVPLDGSAADDRGAVRELAPERHRFVTGPRLSPDGRRAAWLAWDHPRMPWDGTELIVAEVGPEGTFQAARTVAGGPEESIAQADWAPDGTLLYASDRTGWWNLYRDGRPLCPREEEFGGPLWKLGQRWFAPLDSGLIAVLHGRGAAVLGILDPETGEVVDAAGPWTEFAPALAAHGERVAAVGASPRSGYEVVELDARTGRARVIGAPHEDATDPEFYPRPRIRTFTGPGGREIHAHVYPPHHPGCRAPDGELPPYVIWAHGGPTSRSPLVLDLEIAYFTSRGIGVAEVNYGGSSGHGREYRNRLREQWGVVDVEDCAAVALALADEGTADRARLAVRGGSAGGWTSAASLATTDVYACGTISYPILDLTGWGTGETHDFESQYLESLIGPYAEVPDRYTDRSPAEHAERVTAPFLLLQGLDDVICPPVQCERFLDRMAGRGVPHAYLAFEGEGHGFRRAETMVRALEAELSLYAQVFGLTPPGVPVLELTR
protein production: failed

MGETAGREHGTVTRSAEYIGSFPVDDSCLDDQIQQLHTQLKSLKNCKSKRTVSLRFSVKGVKVYDEDETTLLMAHAMCRVSLSTARPSDAQFAFASHNPGNSDAQLYCHLFRARHARAAQFLNLLLCRCFQLYFLEKHPEEAQEECSGKKPSRAPSLLNQGFPLSVSALVSFRRAPTQGLLPGAKLFSQQSTEQVSSPEEGPTSSPTIVRKMAIRTKELRSGAYRSFTFTPLKQRHLQDKLSAPQGGMSVHRTLSRLKEFLRKGTSHCKGMHVSSSQFGRNRRSTGSSCVVLGWRV
protein production: failed

MGEVKDLGMADHGGFDLKIGARVVLEDVKLGDSIAVNGTCLTVTEFNAEEFTVGLAPETLRKTSLEELKKGSPVNLERALQPVSRMGGHVVQGHVDGTGVIESMEVEGDSLWVKVKADKGLLKYIVPKGFVAVDGTSLTVVDVFDEESCFNFMMIAYTQQNVVIPTKKIGQKVNLEVDIMGKYVERLLTSGGFSKGN
protein production: failed

MGFHDYIEETKNIFNRLYPDNKITDIDYEGPTIVVYTKDPELFAKRDDLVRQIAQEIRRRIAIRSDPSILLPEDQARESIEKIIPKEAGLEDIYFEPDTGEVIIELDEPSIVTARGTDYVQEIKSRTQWSPRIVRAPPMYSRTVKEVREFMREVKQERREFLHNLGVKLSGPPMVGETWVRLTALGGHSEVGRSATLVSTKNSKVLIDCGMMNVGPDADPWDAAPYLYVPEVQPLSTIDAVILTHAHLDHSGLLPLLFKYGYDGPVYMTPPTRDLAALLQNDYIKVARMEGGKVPYESKYIREELKHTITLRYGETTDITRDMRLTFYNAGHILGSASGHLHIGDGLYNVVLSGDVKFEKTWLFNPANNKFPRAETFMTESTYGGRDDYSFTREEATQTLIDVINRTHDRGGSVLIPVFAVGRSQEVMIVLEDAMRNGRIPQMDVYLDGMIMEAPAIHAAYPEYLNKELREAIMVKKENPFLSPIFKKVETRDRGRK
protein production: failed

MGFHLRGAIDIPEWLDNVSIISRDGNKELVSILKSQLEGYKIDVNSDPSLAKYWLIINSSSLQQQIVSIGASTNPRQYQLILTIEFMLQTPKGQIIKTPRKVNVSRQLTVNNDRILGSNEEQALLVSEMRRDAAIQIINRLNRPLEHHHHHH
protein production: not failed

MGFLNKLLSSEGPRKPKVKFDLQKCKVLLKGGENRIRLQKSKLAVCNLLASPVPALKNLFNKNSVKLQQREVAVLLEGGKDELARIRAEQMVRDELLIESYEIVEVLCETLLTRHNLLALNFHATKENPYPPLPPEIAEAVCSIAFASCRLDASELQTLTEMLASRFGPELIDSACAGQPSQRVWGVNSLVNPRLYSKLLYSVPDGNVVLQKLQDIADMFQLEWKAPAEFEELKDHSVLDSTASTPVFSGNAQRARYLPEASSFSDEKIGDDVFCTNESEQTEEGRDPSDDLSARLEALKRNR
protein production: failed
